According to patent US20200371091A1, “BCMA-TARGETING CHIMERIC ANTIGEN RECEPTOR, AND USES THEREOF” (Novartis AG, priority 2017, published 2020):

How the values were obtained:
[1] = format: in vivo; settings: subject 03; 1.5 g/m2 on day 17 after high-dose steroids without improvement
Text: This clinical trial was a phase 1 open-label study where the primary objective was safety.
The primary objective was to evaluate the safety of CART-BCMA in patients with relapsed/refractory myeloma. The primary endpoint was incidence of study-related grade 3 or higher AEs, including dose-limiting toxicities (DLTs). A DLT was defined as a serious AND unexpected AE whose relationship to study therapy could not be ruled out, occurring within 4 weeks of receiving protocol therapy.

[2] = target: BCMA (B-cell maturation antigen) on the surface of cell lines (UniProt Q02223); assay: flow cytometry on SuDHL-6 cells; Quantum Simply Cellular quantification kit
[3] = target: BCMA (B-cell maturation antigen) on the surface of cell lines (UniProt Q02223); assay: flow cytometry on HBL-1 cells; Quantum Simply Cellular quantification kit

Chain of BCMA (B-cell maturation antigen) on the surface of cell lines (Q02223 whole entry): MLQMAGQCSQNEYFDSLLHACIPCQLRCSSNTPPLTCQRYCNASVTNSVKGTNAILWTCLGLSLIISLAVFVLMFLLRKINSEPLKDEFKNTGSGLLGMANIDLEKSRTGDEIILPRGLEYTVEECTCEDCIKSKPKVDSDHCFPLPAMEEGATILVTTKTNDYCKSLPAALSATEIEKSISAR

Row | Molecule | time to rapid neurologic improvement of PRES-like grade 4 neurotoxicity [1] [hours] | antibody binding capacity (ABC) [2] | antibody binding capacity (ABC) [3]
1 | O=P1(N(CCCl)CCCl)NCCCO1 (stereo not drawn) [cyclophosphamide] | ≤ 48 |  | 
2 | PE-labeled anti-BCMA antibody (Biolegend, cat #357504) |  | > 5000 | > 5000
